In test [1] the target is Abl1 SH2 domain (UniProt P00519). Briefly: GST-domain microarray probed with biotinylated peptide. The note with it: reference: unphosphorylated peptide; sites Y251.
The target in test [2] is Abl2 SH2 domain (UniProt P42684). Described as above. To be noted: reference: unphosphorylated peptide; sites Y251.
In test [3] the target is Fyn SH2 domain (UniProt P06241). The description is as above. The note with it: reference: unphosphorylated peptide; sites Y251.
The target in test [4] is Nck2 SH2 domain (UniProt O43639). The test is described as above. The note with it: reference: unphosphorylated peptide; sites Y251.
The target in test [5] is Yes SH2 domain (UniProt P07947). Described as above. To be noted: reference: unphosphorylated peptide; sites Y251.
In test [6] the target is isolated PDZ domain of Pdlim5 fused to a Golgi localization sequence (UniProt Q96HC4). Briefly: Golgi co-relocalization assay (immunofluorescence, Pearson's correlation coefficient). The note with it: HT-22 cells; co-expression of GLS-PDZ with isolated LIM 4xMut; parent: est. 0.84; read off a plot.
Chain of UniProt Q96HC4 (Q96HC4 2-85): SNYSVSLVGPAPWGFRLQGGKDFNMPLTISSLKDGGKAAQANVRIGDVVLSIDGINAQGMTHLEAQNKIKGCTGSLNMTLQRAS
In test [7] the target is isolated LIM domain of Pdlim5 fused to a Golgi localization sequence. The description is as above. To be noted: HT-22 cells; co-expression of GLS-LIM with isolated PDZ 4xMut; parent: est. 0.88; read off a plot.

Regarding “Pdlim5 242-261 (from UniProt Q96HC4) pY251 peptide”, the “binding against the reference” value in test [1], in test [2], in test [3], in test [4] and in test [5] was “stronger” in each case.
In the case of “isolated LIM domain of Pdlim5 (not fused to GLS) C541G; F543A; T562A; C570A”, the other: Pearson corr. coef. (r) in test [6] is 0.05.
With “isolated PDZ domain of Pdlim5 (not fused to GLS) (from UniProt Q96HC4) P13G; R17A; K34G; K71A”, the other: Pearson corr. coef. (r) in test [7] came out at 0.08.

(Values after PMC11312917.)
